From PMC5645493, “LAR-RPTP Clustering Is Modulated by Competitive Binding between Synaptic Adhesion Partners and Heparan Sulfate” (Frontiers in Molecular Neuroscience, 2017) come the findings set out here.

B1: human PTPδ Ig1-3(+/+) (domain or fragment)
chain: ETPPRFTRTPVDQTGVSGGVASFICQATGDPRPKIVWNKKGKKVSNQRFEVIEFDDGSGSVLRIQPLRTPRDEAIYECVASNNVGEISVSTRLTVLREDQIPRGFPTIDMGPQLKVVERTRTATMLCAASGNPDPEITWFKDFLPVDTSNNNGRIKQLRSESIGGTPIRGALQIEQSEESDQGKYECVATNSAGTRYSAPANLYVRELREVRRVPPRFSIPPTNHEIMPGGSVNITCVAVGSPMPYVKWMLGAEDLTPEDDMPIGRNVLELNDVRQSANYTCVAMSTLGVIEAIAQIT
notes: receptor-type tyrosine-protein phosphatase delta (PTPδ), human, Ig-like domains 1-3, splice form with the MeA and MeB inserts (+/+); In the functional rows the Fc-fused form (Fc not cleaved) was used; also called PTPδ Ig1-3 MeA+MeB+; LAR-RPTP (PTPδ); source: High Five insect cells (baculovirus), secreted, purified (IgG Sepharose or protein A Sepharose, thrombin, Superdex 200)
B2: human IL1RAPL1 Ig1-3 (domain or fragment)
chain: SADGCTDWSIDIKKYQVLVGEPVRIKCALFYGYIRTNYSLAQSAGLSLMWYKSSGPGDFEEPIAFDGSRMSKEEDSIWFRPTLLQDSGLYACVIRNSTYCMKVSISLTVGENDTGLCYNSKMKYFEKAELSKSKEISCRDIEDFLLPTREPEILWYKECRTKTWRPSIVFKRDTLLIREVREDDIGNYTCELKYGGFVVRRTTELTVTAPLTDKPPKLLYPMESKLTIQETQLGDSANLTCRAFFGYSGDVSPLIYWMKGEKFIEDLDENRVWESDIRILKEHLGEQEVSISLIVDSVEEGDLGNYSCYVENGNGRRHASVLL
modifications: glycans (NAG2-BMA-MAN) attached to N138
notes: IL-1 receptor accessory protein-like 1 (IL1RAPL1), human, Ig-like domains 1-3 of the extracellular part; In the functional row the Fc-fused form (Fc not cleaved) was used; also called IL-1 receptor accessory protein-like 1; IL1RAPL1 Ig1-3-Fc / IL1RAPL1-Fc (Fc kept, in the clustering assays only); source: High Five insect cells (baculovirus), secreted, purified (IgG Sepharose or protein A …)

Data set [1] deals with the molecule itself. The experiment in a line: crystal structure; PTPδ Ig1-3(+/+) mixed with IL1RAPL1 Ig1-3 at 1:1, complex isolated by gel filtration; sitting drop, 296 K, 100 mM Tris-HCl pH 7.5, 200 mM zinc acetate, 10% PEG8K; space group P3_(2)12; 3.08 Å.
Data set [2] deals with B2. Described as above. To be noted: both partners purified.

As for B1, the binding result in data set [1] and in data set [2] was “binds” in each case.

With B2, the binding result in data set [1] is “binds”.
